Assay results from patent publication US20190276542A1 (QILU PUGET SOUND BIOTHERAPEUTICS, published 2019).
Like-named read-outs stand apart in the source and are kept apart here.

How the values were obtained:
[1] = target: T1, human PD1 expressed on a cell surface (human, UniProt Q15116 25-288); assay: cell-based or functional assay
[2] = target: T1, human PD1 expressed on a cell surface; assay: cell-based or functional assay; remark: listed apart in the source
[3] = target: T1, human PD1 expressed on a cell surface; assay: cell-based or functional assay; remark: listed apart in the source
[4] = target: T1, human PD1 expressed on a cell surface; assay: cell-based or functional assay; remark: listed apart in the source
[5] = target: T1, human PD1 expressed on a cell surface; assay: flow cytometry on OKT3-activated human T cells, CD4+ cells
Experimental: (§1) The following experiment tested whether the selected anti-hPD1 antibodies can bind to native PD1 expressed on the surface of activated T cells. Human PBMCs were pre-activated with OKT3 (an anti-CD3 antibody) at a concentration of 1 μg/ml. After three days, the PBMCs, which were mostly activated T cells at this time, were distributed into a 96 well microtiter plate using 0.1×10⁶ cells/well. […] The antibody bound to CD4⁺ T cells and CD4⁻ T cells (which were predominately CD8⁺ T cells) was detected using anti-hlgG-FITC and an anti-CD4 antibody labeled with allophycocyanin (anti-CD4-APC).
(§2) The samples were analyzed by flow cytometry (FACScalibur, BD), and binding was reported as an MFI. EC₅₀'s for binding were calculated using GraphPad Prism software.

[6] = target: T1, human PD1 expressed on a cell surface; assay: flow cytometry on OKT3-activated human T cells, CD4- cells
Experimental: as §1, §2

[7] = target: T2, soluble, biotinylated PD1 protein containing only the extracellular region (human, UniProt Q15116 25-170, biotinylated in vivo (site not stated)); assay: …; inhibition of GST-hPDL1 binding to biotinylated hPD1
T2 construct: extracellular domain; also called biotinylated hPD1
Experimental: Finally, 10 μL of streptavidin donor beads (which can bind the biotinylated hPD1) were added to bring the final concentration of donor beads to 16 μg/mL, and the plates were incubated in the dark at RT for one hour. […] An antibody that inhibits this interaction or binding will decrease the signal, since the inhibiting antibody prevents physical proximity of the donor and acceptor beads.
Plates were read in an EnVision 2103 Multilabel Reader (PerkinElmer) using illumination at a wavelength of 680 nm and reading emission at a wavelength of about […]. The results were plotted and IC₅₀ values were calculated using GraphPad Prism software.

[8] = target: T3, recombinant human (rhu) PD1 (extracellular domain only) (human, UniProt Q15116 25-170); assay: SPR (Biacore 3000), antibody captured by anti-human IgG, PD1 as analyte
T3 construct: extracellular domain; also called recombinant human PD1
Experimental: (§3) Biosensor analysis was conducted at 25° C. in an HBS-EP buffer (10 mM HEPES, 150 mM NaCl, 3 mM EDTA, 0.005% polysorbate 20, 0.1% bovine serum albumin, pH 7.4) using a Biacore 3000 optical biosensor equipped with a CM5 sensor chip according to the manufacturer's general protocol. The auto sampler was maintained at ambient temperature. […] About 8000 resonance units (RU) of this antibody was immobilized on these chips. Flow cell 4 was used to analyze captured anti-hPD1 antibodies (about 100 to 200 RU were captured on flow cell 4), while flow cell 3 was used as the reference flow cell. Both analytes, recombinant human PD1 and recombinant cynomolgus PD1, were prepared in five concentrations for each antibody tested. The analyte concentrations tested ranged from 1.2 to 300 nM. All analyte dilutions were prepared in HPS-EP buffer. Each of the five analyte sample concentrations were run in duplicate and in a mixed order, as a means of assessing the reproducibility of binding and mitigating systematic bias to the order of injection. Multiple blank (running buffer) injections also were run and used to assess and subtract system artifacts. The association phase and dissociation phase for all analyte concentrations were monitored for 300 seconds and 1500 seconds, respectively, at a flow rate of 50 μL/min. Between antibody samples the surface of the flow cell was regenerated with 10 mM glycine, pH 1.5 for 30 seconds at a flow rate of 50 μL/min.
(§4) The data was aligned, double referenced, and fit using SCRUBBER 2™ software (BioLogic Software, Pty, Australia), which is a Surface Plasmon Resonance (SPR) data processing and non-linear least squares regression fitting program.

[9] = target: T4, extracellular domain of a recombinant cynomolgus (rcyno) PD1 (cynomolgus monkey, UniProt B0LAJ3 25-170); assay: as above
T4 construct: also called recombinant cynomolgus PD1
Experimental: as §3, §4

[10] = target: human CTLA4 expressed on Jurkat T cells (human, UniProt P16410 36-223); assay: cell-based or functional assay
Chain of human CTLA4 expressed on Jurkat T cells (P16410 36-223): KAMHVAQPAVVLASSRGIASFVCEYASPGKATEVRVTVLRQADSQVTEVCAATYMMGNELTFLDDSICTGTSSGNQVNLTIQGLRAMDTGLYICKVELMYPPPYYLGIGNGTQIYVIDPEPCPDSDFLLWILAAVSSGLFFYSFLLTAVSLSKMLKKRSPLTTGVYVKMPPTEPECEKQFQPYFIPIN

T1 sequence (Q15116 25-288): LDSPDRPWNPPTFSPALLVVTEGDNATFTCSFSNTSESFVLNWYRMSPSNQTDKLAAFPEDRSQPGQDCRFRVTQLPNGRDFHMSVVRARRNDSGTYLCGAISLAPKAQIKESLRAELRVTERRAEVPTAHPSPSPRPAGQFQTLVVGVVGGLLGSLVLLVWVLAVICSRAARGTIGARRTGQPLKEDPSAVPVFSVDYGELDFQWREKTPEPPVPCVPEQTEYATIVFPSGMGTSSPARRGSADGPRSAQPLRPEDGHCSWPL
T2 sequence (Q15116 25-170): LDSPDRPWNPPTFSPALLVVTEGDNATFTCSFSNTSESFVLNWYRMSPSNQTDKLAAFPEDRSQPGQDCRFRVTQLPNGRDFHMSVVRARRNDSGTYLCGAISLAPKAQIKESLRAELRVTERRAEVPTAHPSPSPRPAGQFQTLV
T3 sequence (Q15116 25-170): as above
T4 sequence (B0LAJ3 entry or part of it limits assumed): as the sequence (Q15116 25-170) above, with D2E, P10A, V19L, T35A, Q75R, T144A counted along it

| Binder | IC50, luciferase (RLU), PD1 dual cell reporter assay (Jurkat cells with hPD1 plus CHO-K1 cells with hPDL1) [1] [nM] | EC50 for CD4+ T cell proliferation (pM), mixed lymphocyte reaction [2] [pM] | EC50 for CD8+ T cell proliferation (pM), mixed lymphocyte reaction [2] [pM] | EC50 for IFN gamma production (pM), mixed lymphocyte reaction [2] [pM] | IC50, luciferase reporter assay (Jurkat cells with hPD1 plus CHO cells with hPDL1) [3] [nM] | IC50, luciferase reporter assay (Jurkat cells with hPD1 plus CHO cells with hPDL1) [4] [nM] | EC50 [5] [nM] | EC50 [6] [nM] | IC50 [7] [nM] | Kd [8] [nM] | koff [8] [s⁻¹] | kon [8] [M⁻¹ s⁻¹] | Kd [9] [nM] | koff [9] [s⁻¹] | kon [9] [M⁻¹ s⁻¹] | IC50, luciferase reporter assay (Jurkat cells with hPD1 plus CHO cells with hPDL1); tested as the mixture Altered anti-CTLA4 10D4 and altered anti-PD1 #1 made in one cell line [3] [nM] | IC50, luciferase reporter assay (Jurkat cells with hPD1 plus CHO cells with hPDL1); tested as the mixture Altered anti-CTLA4 11F4 and altered anti-PD1 #1 made in one cell line [4] [nM] | IC50, luciferase reporter assay (Jurkat cells with CTLA4 plus Raji cells with hCD80 and hCD86) [10] [nM] |
| --- | --- | --- | --- | --- | --- | --- | --- | --- | --- | --- | --- | --- | --- | --- | --- | --- | --- | --- |
| anti-hPD1 antibody #1 (antibody, V domains shown, also called Anti-hPD1 #1; Anti-PD1 #1) VH: QVQLVQSGAEVKKPGASVKVSCKASGYTFTNYWIHWVRQAPGQGLEWMGEIDPYDSYTNYNQKFKGRVTMTVDKSTSTVYMELSSLRSEDTAVYYCARPGFTYGGMDFWGQGTLVTVSS VL: DIQMTQSPSSLSASVGDRVTITCKSSQSLFNSGNQKNYLAWYQQKPGKVPKLLIYGASTRDSGVPYRFSGSGSGTDFTLTISSLQPEDVATYYCQNDHYYPYTFGGGTKVEIKR | 1.18 | 135 | 323 | 890 | 2.49 | 2.5 | 0.918 | 1.37 | 0.197 | 2.18 | 0.000133 | 60900 | 5.06 | 0.000597 | 118000 | – | – | – |
| anti-hPD1 antibody #10 (antibody, human IgG4, V domains shown, also called Anti-hPD1 #10; Anti-PD1 #10) VH: QVQLVQSGAEVKKPGASVKVSCKASGYTFTSYWMHWVRQAPGQGLEWMGEIDPFDSYTNYNQKFKGRVTMTIDKSTNTVYMELSSLGSEDTAVYYCARPGYTYGGMDFWGQGTLVTVSS VL: DIVMTQSPDSLAVSLGERATINCRSSQSLFISGNQKNYLAWYQQKPGQPPKLLIYGASTRDSGVPDRFSGSGSGTDFTLTISSLQAEDVAVYYCQNNHYYPYTFGGGTKVEIK | 2.69 | 234 | 839 | 2210 | – | – | 1.07 | 1.6 | 0.279 | 0.917 | 7.15e-05 | 78000 | – | – | – | – | – | – |
| anti-hPD1 antibody #7 (antibody, human IgG4, V domains shown, also called Anti-hPD1 #7; Anti-PD1 #7) VH: QVQLVQSGAEVKKPGASVKVSCKASGYTFTNYWIHWVRQAPGQGLEWMGEIDPYDSYTNYNQKFKGRVTMTIDKSTNTVYMELSSLRSEDTAVYYCARPGLTYGGMDFWGQGTLVTVSS VL: DIVMTQSPDSLAVSLGERATINCRSSQSLFISGNQKNYLAWYQQKPGQPPKLLIYGASTRESGVPDRFSGSGSGTDFTLTISSLQAEDVAVYYCQNNHYYPYTFGGGTKVEIK | 2.39 | 165 | 1520 | 1460 | – | – | 0.439 | 0.569 | 0.307 | 0.297 | 3.54e-05 | 119000 | 0.4 | 5.79e-05 | 145000 | – | – | – |
| altered anti-hPD1 antibody #1 (antibody, human IgG4 S228P, kappa, V domains shown) VH: QVQLVQSGAEVKKPGASVKVSCKASGYTFTNYWIHWVRQAPGQDLEWMGEIDPYDSYTNYNQKFKGRVTMTVDKSTSTVYMELSSLRSEDTAVYYCARPGFTYGGMDFWGRGTLVTVSS VL: DIQMTQSPSSLSASVGDRVTITCKSSQSLFNSGNQKNYLAWYQQKPGKDPKLLIYGASTRDSGVPYRFSGSGSGTDFTLTISSLQPEDVATYYCQNDHYYPYTFGRGTKVEIKR | – | – | – | – | 2.65 | 2.67 | – | – | – | – | – | – | – | – | – | 3.8 | 3.34 | – |
| anti-hPD1 antibody #3 (antibody, human IgG4, V domains shown, also called Anti-hPD1 #3; Anti-PD1 #3) VH: QVQLVQSGAEVKKPGASVKVSCKASSYTFTNYWMHWVRQAPGQGLEWMGEIDPYDSYTNYNQKFKGRVTMTIDTSTSTVYMELSSLTSEDTAVYYCARPGFTYGGMDFWGQGTLVTVSS VL: DIQMTQSPSSLSASVGDRVTITCKSSQSLFNSGNQKNYLAWYQQKPGKVPKLLIYGASTRESGVPARFSGSGSGTDFTLTISSLQAEDVATYYCQNDHYYPYTFGGGTKVEIK | 2.37 | 365 | 3670 | 2220 | – | – | 0.536 | 0.69 | 0.305 | 5.16 | 0.000348 | 67400 | – | – | – | – | – | – |
| anti-hPD1 antibody #9 (antibody, human IgG4, V domains shown, also called Anti-hPD1 #9; Anti-PD1 #9) VH: QVQLVQSGAEVKKPGASVKVSCKASGYTFTSYWMHWVRQAPGQGLEWMGEIDPYDSYTNYNQKFKGRVTMTIDKSTSTVYMELSSLTSEDTAVYYCARPGFTYGGMDFWGQGTLVTVSS VL: DIVMTQSPDSLAVSLGERATINCRSSQSLLISGNQKNYLAWYQQKPGQPPKLLIYGASTRDSGVPDRFSGSGSGTDFTLTISSLQAEDVAVYYCQNNHYYPYTFGGGTKVEIK | 3.13 | – | – | – | – | – | 1.01 | 1.48 | – | – | – | – | – | – | – | – | – | – |
| anti-hPD1 antibody #4 (antibody, human IgG4, V domains shown, also called Anti-hPD1 #4; Anti-PD1 #4) VH: QVQLVQSGAEVKKPGASVKVSCKASGYTFTNYWMHWVRQAPGQGLEWMGEIDPFDSYTNYNQKFKGRVTMTRDTSTSTVYMELSSLTSEDTAVYYCARPGYTYGGMDFWGQGTLVTVSS VL: DIQMTQSPSSLSASVGDRVTITCKSSQSLLNSGNQKNYLAWYQQKPGKPPKLLIYGASTRDSGVPSRFSGSGSGTDFTLTISSLQPEDVATYYCQNDHYYPYTFGGGTKVEIK | 2.03 | 391 | 534 | 1540 | – | – | 0.672 | 0.885 | 0.314 | 4.62 | 0.000279 | 60400 | – | – | – | – | – | – |
| altered anti-hCTLA4 10D4 (antibody, human IgG1, kappa, V domains shown) VH: QVQLVESGGGVVEPGRSLRLSCTASGFTFSSYGMHWVRQAPGKRLEWVAVIWYHPSKKDYADSAKGRFTISRDNSKNTLYLQMNSLRAEDTAVYYCARAGLLGYFDYWGDGTLVTVSS VL: EIVLTQSPGTLSLSPGERATLSCRASQSVTSYLAWYQQKPGQRPRPLIYGVSSRATGIPDRFSGSGSGTDFTLTISRLEPEDFAVYYCQQYGRYPFTFGDGTKVDIKR | – | – | – | – | – | – | – | – | – | – | – | – | – | – | – | – | – | 3.75 |
